Eight molecules from US20180072783A1 (published 2018) can be followed below.

Sequences and labels used below:
B1: L1-7D MQD (1A12) (peptide)
chain: AQTNFMPMDNDEALLYEQFI
B2: L1-7D MDD (ZC12) (peptide)
chain: AQTNFMPMDNDEGLLYEQFI
B3: L1-7D MAD (6A3) (peptide)
chain: AQTNFMPMDQDEALLYEEFIC
B4: L1-7D MND (4H4) (peptide)
chain: AQTNFMPMDQDELLLYEQFI
B5: L1-7D MSD (7B2) (peptide)
chain: KSLSLSPGGNGTTNFMPMDQDEALLYEEFI
B6: L1-7D MVD (2A1) (peptide)
chain: AQTNFMPMDNDEGLLYEEFI
B7: L1-7D MKD (5A8) (peptide)
chain: AQTNFMPMDDDELLLYEQFIL
B8: L1-7D MHD (3C3) (peptide)
chain: AQTNFMPMDNDEALLYEEFI

As usually defined, the EC50 is the concentration giving half of the maximal effect. High values mean a less potent agent, low ones a more potent agent.

The experiment has as its target T1, Ang2 (UniProt O15123 19-496).
T1 chain: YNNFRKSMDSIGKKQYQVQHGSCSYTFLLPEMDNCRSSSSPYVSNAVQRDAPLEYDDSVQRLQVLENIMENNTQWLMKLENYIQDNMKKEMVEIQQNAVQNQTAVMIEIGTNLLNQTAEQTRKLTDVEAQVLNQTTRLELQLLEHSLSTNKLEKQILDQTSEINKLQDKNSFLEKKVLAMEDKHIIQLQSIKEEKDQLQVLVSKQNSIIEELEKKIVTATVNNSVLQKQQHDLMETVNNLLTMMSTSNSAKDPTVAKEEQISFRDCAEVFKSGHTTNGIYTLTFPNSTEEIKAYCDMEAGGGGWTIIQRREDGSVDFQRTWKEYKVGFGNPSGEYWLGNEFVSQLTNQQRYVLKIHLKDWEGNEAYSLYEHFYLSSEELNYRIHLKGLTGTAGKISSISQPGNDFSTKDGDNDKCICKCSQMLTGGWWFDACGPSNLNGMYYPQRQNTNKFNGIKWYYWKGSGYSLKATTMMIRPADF
The experiment in a line: direct binding ELISA; MBP fusion. (ELISA stands for enzyme-linked immunosorbent assay.)
B1 came in with an EC50 of over 100 nM.
B2 yielded an EC50 of 0.153 nM.
For the molecule B3, the 50% effective concentration (EC50) is over 100 nM.
In the case of B4, the concentration for a half-maximal effect (EC50) stood at 0.411 nM.
For B5 the value was 1.38 nM; for B6, over 100 nM; for B7, over 100 nM.
In the case of B8, the EC50 was 17 nM.
